Patent CN114920842A (HUALAN GENE ENG CO LTD, dated 2022)
Numbering of substitutions follows the chain as printed.

T1: 重组人PLVAP/PV-1蛋白 (human, UniProt Q9BX97 49-442, limits assumed)
T1 construct: Bought reagent (Abcam); Coupled to a CM5 chip in the SPR assay; also called 质膜膜泡关联蛋白
T1 sequence (looked up): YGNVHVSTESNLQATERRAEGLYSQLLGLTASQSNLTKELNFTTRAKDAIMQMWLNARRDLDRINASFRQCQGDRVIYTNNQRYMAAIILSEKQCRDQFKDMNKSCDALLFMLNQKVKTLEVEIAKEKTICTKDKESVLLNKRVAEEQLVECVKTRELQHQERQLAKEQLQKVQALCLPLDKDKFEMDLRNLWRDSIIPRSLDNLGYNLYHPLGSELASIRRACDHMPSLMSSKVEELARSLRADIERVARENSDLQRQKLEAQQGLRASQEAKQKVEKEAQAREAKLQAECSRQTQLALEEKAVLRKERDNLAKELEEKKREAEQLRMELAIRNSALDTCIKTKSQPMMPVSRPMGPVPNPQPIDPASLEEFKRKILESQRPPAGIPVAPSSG

B1: HLPV-P01 (antibody, IgG1, V domains shown)
VH: QVQLVQSGAEVKKPGASVKVSCKASGYTFTDYYMYWVRQAPGQGLEWIGEINPTQGDVNFNEMFKSRVTMTVDTSTSTAYMELSSLRSEDTAVYYCTSIFYWGQGTLVTVSS
VL: DIVMTQSPSSLSASVGDRVTITCKASQDIKYQLSWYQQKPGKAPKTLIYYATDLADGVPSRFSGSGSGQEFTLTISSLQPEDFATYYCVQHDDRPFTFGQGTKLEIK
notes: Full IgG1/kappa antibody; also called 中间抗体; not shown: human IgG1 heavy chain constant region, UniProtKB P01857.1; human Kappa light chain constant region, UniProtKB P01834.2
B2: HLPV-P09 (antibody, IgG1, V domains shown)
VH: B1 VH with S98T
VL: B1 VL with K30G, D92Y
notes: Full IgG1/kappa antibody; not shown: human IgG1 heavy chain constant region, UniProtKB P01857.1; human Kappa light chain constant region, UniProtKB P01834.2
B3: HLPV-P07 (antibody, IgG1, V domains shown)
VH: B1 VH with T30E, N59R
VL: B1 VL with D53Y
notes: as for B2
B4: HLPV-P10 (antibody, IgG1, V domains shown)
VH: B1 VH
VL: B1 VL with S34T, D92S
notes: as for B2
B5: HLPV-P06 (antibody, IgG1, V domains shown)
VH: B1 VH with D31A, Q55S
VL: B1 VL with D53F
notes: as for B2
B6: HLPV-P14 (antibody, IgG1, V domains shown)
VH: B1 VH with D31N, Q55S
VL: B1 VL with T52G
notes: as for B2
B7: HLPV-P08 (antibody, IgG1, V domains shown)
VH: B1 VH with S98T
VL: B1 VL with S34T, Q90S
notes: as for B2
B8: HLPV-P05 (antibody, IgG1, V domains shown)
VH: B1 VH
VL: B1 VL with S34T, D93N
notes: as for B2
B9: HLPV-P12 (antibody, IgG1, V domains shown)
VH: B1 VH with T54S
VL: B1 VL with L54R
notes: as for B2
B10: HLPV-P02 (antibody, IgG1, V domains shown)
VH: B1 VH with T28V, Q55T
VL: B1 VL with A51S
notes: as for B2
B11: HLPV-P13 (antibody, IgG1, V domains shown)
VH: B1 VH with T28V, Q55S
VL: B1 VL with T52G
notes: as for B2
B12: HLPV-P03 (antibody, IgG1, V domains shown)
VH: B1 VH with T30E, I51V
VL: B1 VL with D53F
notes: as for B2
B13: HLPV-P00 (antibody, IgG1, V domains shown)
VH: B1 VH with F100H
VL: B1 VL with Y31T, V89L
notes: Full IgG1/kappa antibody, VH fused at its C-terminus to the IgG1 constant region, VL to the kappa constant region; expressed in ExpiCHO-S; also called 原始抗体; not shown: human IgG1 heavy chain constant region, UniProtKB P01857.1; human Kappa light chain constant region, UniProtKB P01834.2
B14: HLPV-P04 (antibody, IgG1, V domains shown)
VH: B1 VH with T30R, Q55T
VL: B1 VL with D53S
notes: as for B2
B15: HLPV-P11 (antibody, IgG1, V domains shown)
VH: B1 VH with S98T
VL: B1 VL with T97S
notes: as for B2

These binders were tested against T1, 重组人PLVAP/PV-1蛋白 (assay: SPR, Biacore T200, PV-1 coupled to CM5 chip, antibody as analyte, 25℃, 1:1 fit).

倍数 (fold against HLPV-P00)	Binder
7.31 fold	B1
36.8 fold	B2
11.4 fold	B3
23.4 fold	B4
8.95 fold	B5
8.58 fold	B6
38.4 fold	B7
25.8 fold	B8
4.1 fold	B9
6.29 fold	B10
9.29 fold	B11
13.4 fold	B12
1 fold	B13
14 fold	B14
40.5 fold	B15
